Assay [1] has as its target SARS-CoV-2 full length spike protein, V367F mutant (SARS-CoV-2, UniProt P0DTC2 14-1273).
For assay [2], the target named is SARS-CoV-2 full length spike protein, D614G mutant (SARS-CoV-2, UniProt P0DTC2 14-1273).
Assay [3] has as its target SARS-CoV-2 full length spike protein, V367F mutant, expressed on the surface of CHO cells (SARS-CoV-2, UniProt P0DTC2 14-1273).
Assay [4] deals with SARS-CoV-2 full length spike protein, D614G mutant, expressed on the surface of CHO cells (SARS-CoV-2, UniProt P0DTC2 14-1273).
Assay [5] addresses SARS-CoV-2 full length spike protein, V367F mutant (SARS-CoV-2, UniProt P0DTC2 14-1273). The source holds these as a separate data set.
Assay [6] addresses SARS-CoV-2 full length spike protein, D614G mutant (SARS-CoV-2, UniProt P0DTC2 14-1273). This is another data set of the same source.

18 molecules from patent US20210292393A1 (published 2021) can be followed below.

B1: antibody 268 (antibody, V domains shown)
VH: QVQLQESGPGLVKPSQTLSLTCTVSGGSISSGSYYWSWIRQPAGKGLEWIGRIYTSGSTNYNPSLKSRVTISVDTSKNQFSLKLSSVTAADTAVYYCARELVGGLLGTIDYWGQGTLVTVSS
VL: DIQLTQSPSFLSASVGDRVTITCRASQGISSYLAWYQQKPGKAPKLLIYAASTLQSGVPSRFSGSGSGTEFTLTISSLQPEDFATYYCQQLNSYPYTFGQGTKLEIK
Regarding B1, the “median fluorescence intensity, fold over isotype control” value (shortened to “median fluorescence intensity, fold”) in assay [1] was found to be 8.9 fold over isotype; in assay [2] it was 8.18 fold over isotype.

B2: antibody 355 (antibody, V domains shown)
VH: QVHLVESGGGVVQPGRSLRLSCAASGFTFSSFPMHWVRQAPGKGLEWVAVISYDGGDEHYTDSVEGRFTISRDNSLNTLYLQMSSLRLEDTAVYYCARDRYDSSGYYYVSDYWGQGTLITVSS
VL: SYELTQPPSVSVSPGQTARISCSGDALPKQYAYWYQQKPGQAPVLVIYKDSERPSGIPERFSGSSSGTTVTLTISGVQAEDEADYYCQSADSRGTDPWVFGGGTKLTVL
Take B2: the “median fluorescence intensity, fold” value worked out at 8.08 fold over isotype in assay [3] and 20.3 fold over isotype in assay [4].

B3: antibody 312 (antibody, V domains shown)
VH: QVQLVQSGAEVKKPGASVKVSCKASGYTFTSYGISWVRQAPGQGLEWMGWISAYNGNTNYAQKLQGRVTMTTDTSTSTAYMELRSLRSDDTAVYYCARMLIAAAGTSRDYYGMDVWGQGTTVTVSS
VL: not shown
Take B3: the “median fluorescence intensity, fold” value in assay [3] stood at 11.3 fold over isotype; in assay [4], 24.5 fold over isotype.

B4: antibody 318 (antibody, V domains shown)
VH: QVQLVESGGGVVPPGRSLSLPCAASGFSFSAYAMHWLRQAPGKGLEWVAVISYDGTVKYVADSVRGRFTISRDNSNNTLYLQMTSLRSDDTAVYYCARDLGALAAAPTVYFVHWGQGTLVTVSS
VL: SYVLTQPPSVSVAPGKTATITCAGEDIGRKSVHWYQQKPGQAPVLVIFYYSDRPSGIPDRFSGSVSGNTATLTIGRVEAGDEADYFCQVWDRTTNHVIFGGGTKVTVL
On to B4, for which the “median fluorescence intensity, fold” value was determined as 40.3 fold over isotype in assay [3] and 9.92 fold over isotype in assay [4].

B5: antibody 261 (antibody, V domains shown)
VH: QVQLVESGGGVVQPGRSLRLSCAASGFTFSSYAMHWVRQAPGKGLEWVAVISYDGSNKYYADSVKGRFTISRDNSKNTLYLQMNSLRAEDTAVYYCARDEAYYDILTGYINAPKNYYYYGMDVWGQGTTVTVSS
VL: DIQMTQSPSSLSASVGDRVTITCRASQGIRNDLGWYQQKPGKAPKRLIYAASSLQSGVPSRFSGSGSGTEFTLTISSLQPEDFATYYCLQHNSYPFTFGPGTKVDIK
As to B5, the “median fluorescence intensity, fold” value in assay [1] was 59.9 fold over isotype; in assay [2], 87 fold over isotype.

B6: antibody 356 (antibody, V domains shown)
VH: QVQLVQSGAEVKKPGASVKVSCKASGYTFTSYGISWVRQAPGQGLEWMGWISAYHGNTNYAQKLQGRVTMTTDTSTSTAYMELRSLRSDDTAVYYCARVGLWWLGHADAFDIWGQGTMVTVSS
VL: DIQMTQSPSSLSASVGDRVTITCRASQGIRNDLGWYQQKPGKAPKRLIYAASSLQSGVPSRFSGSGSGTEFTLTISSLQPEDFATYYCLQHNSYPLTFGGGTKVEIK
Consider B6, for which the “median fluorescence intensity, fold” value in assay [3] was determined as 60.4 fold over isotype; in assay [4], 90.8 fold over isotype.

B7: antibody 461 (antibody, V domains shown)
VH: EVQLVESGGGLVKPGGSLRLSCAASGFTFSSYSMNWVRQAPGKGLEWVSSISSSSSYIYYADSVKGRFTISRDNAKNSLYLQMNSLRAEDTAVYYCASNPAAGQEAYYYYGMDVWGQGTTVTVSS
VL: not shown
Take B7: the “median fluorescence fold over isotype control” value (shortened to “median fluorescence fold”) in assay [5] amounted to 6.89 fold over isotype; in assay [6], 27.8 fold over isotype.

B8: antibody 346 (antibody, V domains shown)
VH: EVQLVQSGAEVKKPGESLKISCKGSGYSFTSYWIGWVRQMPGKGLEWMGIIYPGDSDTRYSPSFQGQVTISADKSISTAYLQWSSLKASDTAMYYCARHGPQDGYSSSWYLDYWGQGTLVTVSS
VL: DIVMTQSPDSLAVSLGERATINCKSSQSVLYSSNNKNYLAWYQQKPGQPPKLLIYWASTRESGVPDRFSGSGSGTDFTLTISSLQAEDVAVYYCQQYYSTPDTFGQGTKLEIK
Take B8: the results for the “median fluorescence intensity, fold” value in assay [3] and in assay [4] were 7.05 fold over isotype and 8.57 fold over isotype, respectively.

B9: antibody 330 (antibody, V domains shown)
VH: QVQLVESGGGVVQPGRSLRLSCAASGFTFSSYAMHWVRQAPGKGLEWVAVISYDGSNKYYADSVKGRFTISRDNSKNTLYLQMNSLRAEDTAVYYCARDFQYYDFWSGYLTVSSPTSYYGMDVWGQGTTVTVSS
VL: NFMLTQPHSVSESPGKTVTISCTGSSGSIASNYVQWYQQRPGSAPTTVIYEDNQRPSGVPDRFSGSIDSSSNSASLTISGLKTEDEADYYCQSYDSSNVVFGGGTKLTVL
Consider B9, for which the “median fluorescence intensity, fold” value in assay [3] was 22.4 fold over isotype; in assay [4], 56.5 fold over isotype.

B10: antibody 286 (antibody, V domains shown)
VH: QVHLVESGGGVVQPGKSLRLSCAGSGFIFSDFGMHWVRQSPGKGLEWVAVVSYDGSVTKYSDSFEGRFTISRDNSKNTLYLQMDSLRPDDTAIYYCAKGQGANLLHYWGKGILVTVSS
VL: DVVLTQSPLSLPVTLGQPASISCRSSESLVYTDGDTYLHWFHQRPGQSPRRLIYKVSNRDSGVPDRFSGSGSGTDFTLKISRVEAEDVGVYYCMQGTHWPFTFGPGTKVDIK
As for B10, the figures for the “median fluorescence intensity, fold” value in assay [1] and in assay [2] were 28.2 fold over isotype and 6.17 fold over isotype, respectively.

B11: antibody 311 (antibody, V domains shown)
VH: QVQLQESGPGLVKPSETLSLTCTVSGYSISSGYYWGWIRQPPGKGLEWIGSIYHSGSTYYNPSLKSRVTISVDTSKNQFSLKLSSVTAADTAVYYCAREETLGSSWYESYIDYWGQGTLVTVSS
VL: SYVLTQPPSVSVAPGKTARITCGGNNIGSKSVHWYQQKPGQAPVLVIYYDSDRPSGIPERFSGSNSGNTATLTISRVEAGDEADYYCQVWDSSSDHPRVFGGGTKLTVL
On to B11, for which the “median fluorescence intensity, fold” value in assay [3] is 29.6 fold over isotype; in assay [4], 59.7 fold over isotype.

B12: antibody 338 (antibody, V domains shown)
VH: QVQLQESGPGLVKPSETLSLTCAVSGYSISSDYYWGWIRQPPGKGLEWIGSIYHSGSTYYNPSLKSRVTISIDTSKNQFSLKLSSVTAADTAVYYCARDPGNYDILTGIFDYWGQGTLVTVSS
VL: QSALTQPASVSGSPGQSITISCTGTSSDVGVYNYVSWYQQHPGKAPKLMIYDVTNRPSGVSNRFSGSKSGNTASLTISGLQAEDEADYYCSSYTSSSTLAVYVFGTGTKVTVL
On to B12, for which the “median fluorescence intensity, fold” value stood at 33.2 fold over isotype in assay [3] and 7.81 fold over isotype in assay [4].

B13: antibody 358 (antibody, V domains shown)
VH: QVQLVESGGGVVQPGRSLRLSCAASGFNLNSYAMHWVRQASGKGLEWVSLMSYDGSIKYYADSVKGRFTVSGDNSRNTLFLQMNSLRPDDSALYYCVRGGVSGPNSFDLWGQGTTVTVSS
VL: DVVMTQSPLSLPVTLGQPASISCRSSQSLVYSDGSTYVNWFQQRPGQSPRRLIYKVSNRDSGVPDRFSGSGSGTDFALKISRVEAEDVGVYYCMQGTHWPVTFGQGTKVEIK
For B13, the results for the “median fluorescence intensity, fold” value in assay [3] and in assay [4] were 38.4 fold over isotype and 8.74 fold over isotype, respectively.

B14: antibody 458 (antibody, V domains shown)
VH: QVQLVESGGGVVQPGRSLRLSCAASEFTFATYAMHWVRQAPGKGLEWVALISQDGSNKHYADSVKGRFTISRDNSKNTLYLQMNSLRAEGTAIYYCARESLEAAGPPFDYWGQGTLVTVSS
VL: SYELTQPPSVSVSPGQTATIICSGDKLGEKYASWYQQKPGQSPALVIYQDRKRPSGIPERFSGSNSGNTATLTISGTQAMDEADYYCQAWDSSNSVVFGGGTKLTVP
As to B14, the entries for the “median fluorescence fold” value in assay [5] and in assay [6] were 27.4 fold over isotype and 6.23 fold over isotype, respectively.

B15: antibody 455 (antibody, V domains shown)
VH: QVQLVQSGAEVKKPGSSVKVSCKASGGTFSSYAISWVRQAPGQGLEWMGRIIPILGIANYAQKFQGRVTITADKSTSTAYMELSSLRSEDTAVYYCARDSIVVPAAIISGYYYYGMDVWGQGTTVTVSS
VL: QSVLTQPPSVSAAPGQKVTISCSGSSSNIGNNYVSWYQQLPGTAPKLLIYDNNKRPSGIPDRFSGSKSGTSATLGITGLQTGDEADYYCGTWDSSLSAGRVFGGGTKLTVL
Regarding B15, the “median fluorescence fold” value came out at 32.3 fold over isotype in assay [5] and 8.24 fold over isotype in assay [6].

B16: antibody 314 (antibody, V domains shown)
VH: EVQLVESGGGLVKPGGSLRLSCAASGFTLSSYSMNWVRQAPGKGLEWVSCISSSSSYIYYADSVKGRFTISRDNAKNSLYLQMNSLRAEDTAVYYCASDPLDIVVVPAARDYYYYGMDVWGQGTTVTVSS
VL: not shown
In the case of B16, the entries for the “median fluorescence intensity, fold” value in assay [3] and in assay [4] were 19.6 fold over isotype and 30.4 fold over isotype, respectively.

B17: antibody 272 (antibody, V domains shown)
VH: QVQLVQSGAEVKKPGASVKVSCKASGYTFTTYYMHWVRQAPGQGLEWMGIINPSGGSASYAQKFQGRVTMTRDTSTSTVYMELSSLRSEDTAVYYCARDHTLVNGDYEYYYGMDVWGQGTTVTVSS
VL: SYELTQPPSVSVSPGQTARITCSGDALPKQYAYWYQQKPGQAPVSVIYKDSERPSGIPERISGSSSGTTVTLTISGVQAEDEADYYCQSADSSGTYLVFGGGTKLTVL
For B17, the “median fluorescence intensity, fold” value was 40.4 fold over isotype in assay [1] and 79.7 fold over isotype in assay [2].

B18: antibody 357 (antibody, V domains shown)
VH: QVQLVQSGAEVKKPGSSVKVSCKASGGTFSSYAISWVRQAPGQGLEWMGRIIPILGIANYAQKFQGRVTITADKSTSTAYMELSSLRSEDTAVYYCARGPIAVAGIGPWFDPWGQGTLVTVSS
VL: QSVLTQPPSVSAAPGQKVTISCSGSSSNIGNNYVSWYQQLPGTAPKLLIYDNNKRPSGIPDRFSGSKSGTSATLGITGLQTGDEADYYCGTWDSSLSAVVFGGGTKLTVL
As to B18, the “median fluorescence intensity, fold” value amounted to 28 fold over isotype in assay [3] and 5.37 fold over isotype in assay [4].
